Results as given in paper doi:10.1101/2022.07.26.501514.

Target: T1, Atg18 wildtype (Autophagy-related protein 18, Saccharomyces cerevisiae) (Saccharomyces cerevisiae), P43601
T1 chain: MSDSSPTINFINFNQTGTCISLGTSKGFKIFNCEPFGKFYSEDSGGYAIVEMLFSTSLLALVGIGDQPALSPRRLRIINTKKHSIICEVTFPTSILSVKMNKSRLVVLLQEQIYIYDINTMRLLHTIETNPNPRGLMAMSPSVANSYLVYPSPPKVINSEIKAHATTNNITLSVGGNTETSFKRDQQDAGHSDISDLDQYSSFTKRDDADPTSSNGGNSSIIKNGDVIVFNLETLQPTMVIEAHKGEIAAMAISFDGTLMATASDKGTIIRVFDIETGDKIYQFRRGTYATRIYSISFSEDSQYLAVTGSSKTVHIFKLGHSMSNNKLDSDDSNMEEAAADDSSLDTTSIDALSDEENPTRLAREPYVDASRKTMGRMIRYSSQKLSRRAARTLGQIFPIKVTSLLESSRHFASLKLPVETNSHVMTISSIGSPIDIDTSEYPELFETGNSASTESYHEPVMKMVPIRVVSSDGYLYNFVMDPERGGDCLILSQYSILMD
Assay: single-particle cryo-EM, 2D classification
Settings: remark: other sources report otherwise

B1: Atg18 wildtype (Autophagy-related protein 18, Saccharomyces cerevisiae), P43601 1-500 (natural protein)
chain: T1 chain
- stoichiometry N: 2
